Data: paper PMC7292962 (Biochemistry, 2019)
Like-named read-outs stand apart in the source and are kept apart here.

Assays:
Assay in all cases: AUC
[1] = molecular target: the molecule itself
[2] = molecular target: the molecule itself; remark: listed apart in the source
[3] = molecular target: the molecule itself; remark: listed apart in the source
[4] = molecular target: the molecule itself; remark: listed apart in the source

B1: S100A12 (natural protein, human)
chain: TKLEEHLEGIVNIFHQYSVRKGHFDTLSKGELKQLLTKELANTIKNIKDKAVIDEIFQGLDANQDEQVDFQEFISLVAIALKAAHYHTHKE
Kd [1]: 13.2 µM | Kd [2]: 56.7 µM | stoichiometry N [3]: 2 | Kd [4]: 4590 µM
